{
  "source": "paper PMC3288267",
  "origin": "cited, not measured here",
  "key": {"[1]": {"biological_target": "transferrin receptor 1 (TfR), immobilised on SPR chip (UniProt P02786)", "sequence (P02786 whole entry)": "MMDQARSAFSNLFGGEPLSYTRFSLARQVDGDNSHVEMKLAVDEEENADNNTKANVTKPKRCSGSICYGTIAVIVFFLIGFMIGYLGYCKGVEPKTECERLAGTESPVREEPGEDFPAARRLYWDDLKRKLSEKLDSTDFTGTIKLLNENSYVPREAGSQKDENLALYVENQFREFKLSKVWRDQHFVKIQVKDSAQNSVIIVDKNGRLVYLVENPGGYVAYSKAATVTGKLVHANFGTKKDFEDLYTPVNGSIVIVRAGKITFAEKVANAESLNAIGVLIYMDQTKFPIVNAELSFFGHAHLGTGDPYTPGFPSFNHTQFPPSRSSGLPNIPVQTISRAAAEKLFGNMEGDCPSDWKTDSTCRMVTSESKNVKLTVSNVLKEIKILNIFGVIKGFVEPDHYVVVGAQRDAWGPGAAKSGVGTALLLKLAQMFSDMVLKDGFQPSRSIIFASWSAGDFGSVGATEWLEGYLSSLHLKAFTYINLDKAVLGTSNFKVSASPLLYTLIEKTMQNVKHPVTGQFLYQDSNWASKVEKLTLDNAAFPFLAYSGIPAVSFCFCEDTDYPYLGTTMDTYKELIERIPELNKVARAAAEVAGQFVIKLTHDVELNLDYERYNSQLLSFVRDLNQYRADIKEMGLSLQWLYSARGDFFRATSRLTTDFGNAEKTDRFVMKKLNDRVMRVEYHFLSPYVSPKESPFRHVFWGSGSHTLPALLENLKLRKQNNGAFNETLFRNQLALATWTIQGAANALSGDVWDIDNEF", "experiment": "Surface plasmon resonance, kinetic", "conditions": "pH endosomal pH (numeric value not given)"}, "[2]": {"biological_target": "transferrin receptor 1 (TfR), immobilised on SPR chip (UniProt P02786)", "experiment": "Surface plasmon resonance, equilibrium binding", "conditions": "pH endosomal pH (numeric value not given)"}},
  "data": [
    {"substance": "apo-transferrin (iron-free), SPR analyte", "values": [
      {"measurement": "KD (from kd,end/ka,end)", "setting": "[1]", "value": 1.3, "unit": "nM"},
      {"measurement": "ka,end (association rate constant; kend,a in Table 1)", "setting": "[1]", "value": "4.4 ± 0.4 × 10^7 min^−1 M^−1"},
      {"measurement": "kd,end (dissociation rate constant; kend,d in Table 1)", "setting": "[1]", "value": "0.000933 ± 0.0002", "unit": "s⁻¹"},
      {"measurement": "KD (equilibrium SPR)", "setting": "[2]", "value": "<15", "unit": "nM"}
    ]}
  ]
}
